Measurements as given in patent US12296006B2, “Anti-LY6H antibodies and antibody drug conjugates” (Bluefin BioMedicine, Inc., priority 2017, dated 2025).

Experiments:
H446 = experiment: Anti-Ly6H antibodies binding to endogenous cell lines by flow cytometry: H446; design: species or system human; key: (−): No binding; (+): Weak binding; (++): Moderate binding; (+++): Strong binding; (++++): Very strong binding; settings: primary antibodies 1 ug/ml, live cells on ice 30 minutes
Description: (§1) Staining for flow cytometry was performed in 1× cold PBS with 0.5% BSA. Primary antibodies (1 ug/ml) were incubated with live cells on ice for 30 minutes, after a brief wash, cells were incubated with Alexa Fluro® 488-conjugated anti-human IgG secondary antibody @1:1000 (709-546-149, Jackson ImmunoResearch). Acquisition of the data was performed on a MACSQuant© Flow Cytometers (Miltenyi Biotec) and analyzed with FlowJo software.
(§2) Fully human antibodies against LY6H were generated by hybridoma procedures. Briefly, H2L2 mice were immunized with either recombinant human Ly6H-ECD or BaF3 cells over-expressing LY6H and boosted with rabbit splenocytes expressing full length human LY6H or with ECD of LY6H recombinant protein. Splenocytes were fused with the mouse myeloma cell line X63-Ag8.653. Clones from H2L2 mice were identified by immunofluorescence (IF) based high content screening (HCS) on 293 cells overexpressing hLY6H, ratLy6H, and parental 293 cells not expressing LY6H, as well as endogenous small cell lung cancer (SCLC) cell line, H446. […] 270 hits were cryopreserved and stored in liquid nitrogen. Approximately 100 clones were selected for molecular cloning. Based on unique CDR3 sequences from the heavy chain variable domain, 10 antibodies from 8 families were chosen and confirmed by flow cytometry (MACSQuant® miltenybiotec.com) on the following cell lines. The small-cell-lung cancer cells (SCLC) included H446, DMS79, and H526 cells. The T-cell acute lymphoblastic leukemia (T-ALL) cancer cells included MOLT3 and KE-37 cells.

H69 = experiment: Anti-Ly6H antibodies binding to endogenous cell lines by flow cytometry: H69; design: species or system human; key: (−): No binding; (+): Weak binding; (++): Moderate binding; (+++): Strong binding; (++++): Very strong binding; settings: primary antibodies 1 ug/ml, live cells on ice 30 minutes
Description: as §1
as §2, with “The small-cell-lung cancer cells (SCLC) included H446, DMS79, and H526 cells. The T-cell acute lymphoblastic leukemia (T-ALL) cancer cells included MOLT3 and KE-37 cells.” left out

DMS79 = experiment: Anti-Ly6H antibodies binding to endogenous cell lines by flow cytometry: DMS79; design: species or system human; key: (−): No binding; (+): Weak binding; (++): Moderate binding; (+++): Strong binding; (++++): Very strong binding; settings: primary antibodies 1 ug/ml, live cells on ice 30 minutes
Description: as §1, §2

MOLT3 = experiment: Anti-Ly6H antibodies binding to endogenous cell lines by flow cytometry: MOLT3; design: species or system human; key: (−): No binding; (+): Weak binding; (++): Moderate binding; (+++): Strong binding; (++++): Very strong binding; settings: primary antibodies 1 ug/ml, live cells on ice 30 minutes
Description: as §1, §2

KE-37 = experiment: Anti-Ly6H antibodies binding to endogenous cell lines by flow cytometry: KE-37; design: species or system human; key: (−): No binding; (+): Weak binding; (++): Moderate binding; (+++): Strong binding; (++++): Very strong binding; settings: primary antibodies 1 ug/ml, live cells on ice 30 minutes
Description: as §1, §2

EOL1 = experiment: Anti-Ly6H antibodies binding to endogenous cell lines by flow cytometry: EOL1; design: species or system human; key: (−): No binding; (+): Weak binding; (++): Moderate binding; (+++): Strong binding; (++++): Very strong binding; settings: primary antibodies 1 ug/ml, live cells on ice 30 minutes
Description: as §1
as §2, with “The small-cell-lung cancer cells (SCLC) included H446, DMS79, and H526 cells. The T-cell acute lymphoblastic leukemia (T-ALL) cancer cells included MOLT3 and KE-37 cells.” left out

[1] = biological target: H446, DMS79, H526, and MOLT3; experiment: Measurement of antibody EC50 by flow cytometry; format: binding, human; settings: 100 nM to 0.1 nM antibody
Description: The assay uses 3-5 fold dilutions (from 100 nM to 0.1 nM) of antibody of a stock antibody concentration (100 nM) in binding buffer. Serial diluted antibodies were incubated with live cells on ice for 30 minutes, after a brief wash, cells were incubated with Alexa Fluro® 488-conjugated anti-human IgG secondary antibody @1:100, or 15 ug/ml (709-546-149, Jackson ImmunoResearch). Acquisition of the MFI (Median Fluorescent Intensity) was performed on a MACSQuant® Flow Cytometers (Miltenyi Biotec). EC50 was calculated using Dose-response EC50 shift by global fitting from GraphPad Prism.
EC50 or the concentration of antibody that gives half-maximal binding is determined by direct and saturable binding of an antibody dilution series to both target positive and negative cell lines. An estimate of affinity is interpreted from one-half the concentration at which antibody binding first achieves saturation. EC50 was measured in the following cell lines H446, DMS79, H526, and MOLT3 (FIG. 4). Though EC50 may not provide an accurate measure of affinity, it allows for ranking ordering of antibodies. 12G7, 11D9, 10B10, and 6D11 were ranked top, followed by 34H6, 1F8, and 2B11.

H446 cells = experiment: Internalization assay in H446 cells (LAMP1 co-staining); format: cell-based, human; settings: live H446 cells incubated with antibody at 37° C., fixed, permeablized, LAMP1 co-stain
Description: Live H446 cells were incubated with 12G7 for 2 hours, cells were then fixed, permeablized, and co-stained with LAMP1 antibody.
Live H446 cells were incubated with 12G7 antibody for 30 minutes at 37° C. After cytospin, cells were fixed with 4% PFA and permeablized with 100% methanol, and stained with LAMP1 antibody (#9091, Cell Signaling Technology, Inc.).

[2] = test system: LY6H positive SCLC and T cell acute lymphoblastic leukemia (T-ALL) cell lines; experiment: Flow cytometry binding of 12G7 to SCLC and T-ALL cell lines (FIG. 2); design: species or system human
Description: Dotted lines represent LY6H antibody.
as §1
as §2, with “Based on unique CDR3 sequences from the heavy chain variable domain, 10 antibodies from 8 families were chosen and confirmed by flow cytometry (MACSQuant® miltenybiotec.com) on the following cell lines. The small-cell-lung cancer cells (SCLC) included H446, DMS79, and H526 cells. The T-cell acute lymphoblastic leukemia (T-ALL) cancer cells included MOLT3 and KE-37 cells.” left out

B1: 12G7: human anti-LY6H antibody, VH SEQ ID NO: 22, VL SEQ ID NO: 26 (antibody, V domains shown)
VH: QVQLQQWGAGLLKPSETLSLTCAVYGGSFSGYYWSWIRQPPGKGLEWIGEINHSGSTYYNPSLKSRVTMSVDTSKNQFSLKLSSVTAADTAVYYCAKRWELGAFDIWGQGTMVTVSS
VL: DIQMTQSPSSLSASVGDRVTITCRASQGISNYLAWYQQKPGKVPKLLIYAASTLQSGVPSRFSGSGSGTDFTLTISSLQPEDVATYYCQKYNSAPRTFGQGTKLEIK
With B1 the “binding by flow cytometry, H446” value (H446) was “(++++)”, the “binding by flow cytometry, H69” value (H69) was “(−)” and the “binding by flow cytometry, DMS79” value (DMS79) was “(+++)”. For the same molecule, the “binding by flow cytometry, MOLT3” value (MOLT3) was “(+++)”, the “binding by flow cytometry, KE-37” value (KE-37) was “(++++)” and the “binding by flow cytometry, EOL1” value (EOL1) was “(−)”. The “rank ordering of antibodies by EC50 (half-maximal binding)” value (shortened to “rank ordering of antibodies by EC50”) [1] was “ranked top”, the “internalization / co-localization with LAMP1” value (H446 cells) was “internalization” and the “binding to LY6H positive SCLC and T-ALL cell lines” value [2] was “binds”.

B2: 10B10: human anti-LY6H antibody, VH SEQ ID NO: 60, VL SEQ ID NO: 26 (antibody, V domains shown)
VH: QVQLQQWGAGLLKPSETLSLTCAVYGGSFSGYYWHWIRQPPGKGLEWIGEINHSESTKYNPSLKSRVTISVDTSKNQFSLKLSSVTGADTAVYYCARGQHIVVVTDSLGDYWGQGTLVTVSS
VL: DIQMTQSPSSLSASVGDRVTITCRASQGISNYLAWYQQKPGKVPKLLIYAASTLQSGVPSRFSGSGSGTDFTLTISSLQPEDVATYYCQKYNSAPRTFGQGTKLEIK
In the case of B2, the “binding by flow cytometry, H446” value (H446) is reported as “(++++)”, the “binding by flow cytometry, DMS79” value (DMS79) is reported as “(+++)” and the “binding by flow cytometry, MOLT3” value (MOLT3) is reported as “(+++)”. For the same molecule, the “binding by flow cytometry, KE-37” value (KE-37) was “(++++)” and the “rank ordering of antibodies by EC50” value [1] was “ranked top”.

B3: 6D11: human anti-LY6H antibody, VH SEQ ID NO: 1, VL SEQ ID NO: 5 (antibody, V domains shown)
VH: QVQLQQWGAGLFKPSETLSLTCAVYGGSFSGSLWSWIRQPPGKGLEWIGEINHSGSTNYTPSLKSRVTISVDTSKNQFSLKLTSVTAADTAVYYCARGRHIVVVTAIHSPFDYWGQGTLVTVSS
VL: DIQMTQSPSSLSASVGDRVTITCRASQGISNYLAWYQQKPGKVPKLLIFAASTLQSGVPSRFSGSGSGTDFTLTISSLQPEDVATYYCQKYNSAPRTFGQGTKLEIK
In the case of B3, the “binding by flow cytometry, H446” value (H446) is reported as “(++++)”, the “binding by flow cytometry, DMS79” value (DMS79) is reported as “(+++)” and the “binding by flow cytometry, MOLT3” value (MOLT3) is reported as “(+++)”. For the same molecule, the “binding by flow cytometry, KE-37” value (KE-37) was “(++++)” and the “rank ordering of antibodies by EC50” value [1] was “ranked top”.
